Source: patent US20200157194A1 (Regeneron, published 2020)

T1: human GREM1 (hGREM1-His; SEQ ID NO: 595) (human, UniProt O60565 25-184)
T1 construct: also called biotin-hGREM1-His; recombinant human GREM1 protein
T1 sequence: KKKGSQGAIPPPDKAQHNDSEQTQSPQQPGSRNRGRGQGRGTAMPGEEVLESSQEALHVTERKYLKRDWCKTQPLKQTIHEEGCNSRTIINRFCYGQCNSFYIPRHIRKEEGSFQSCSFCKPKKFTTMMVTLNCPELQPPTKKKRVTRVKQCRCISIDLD

T2: recombinant human GREM1 (hGREM1-His; C-terminal 10His tagged, R&D, #5190-GR) (human, UniProt O60565 25-184)
T2 construct: range 25-184; also called recombinant human GREM1 with a C-terminal decahistidine tag
T2 sequence: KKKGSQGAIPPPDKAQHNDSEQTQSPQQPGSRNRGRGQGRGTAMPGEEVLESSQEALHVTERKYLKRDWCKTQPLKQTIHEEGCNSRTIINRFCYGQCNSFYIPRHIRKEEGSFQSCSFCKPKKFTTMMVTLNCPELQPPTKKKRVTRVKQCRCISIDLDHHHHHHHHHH


Tests used:
[1] = biological target: T1, human GREM1 (hGREM1-His; SEQ ID NO: 595); assay: SPR, Biacore T200, 37 C, mAb captured, hGREM1-His injected;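 also: HBS-EP running buffer containing heparin, association and dissociation phases tracked, KD computed as koff over kon and half-life derived from koff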
Experimental: Kinetic experiments were carried out using HBS-EP+heparin [10 mM HEPES, 150 mM NaCl, 3 mM EDTA, 0.05% (v/v) surfactant P20, 10 μg/ml heparin sodium salt, pH 7.4] as both the running buffer and the sample buffer. […] Antigen-antibody association was monitored for 150 seconds while dissociation in buffer was monitored for 420 seconds. Kinetic analysis was performed using Scrubber software version 2.0a or Biacore T200 evaluation software v1.0 to determine kₐ and kd values. KD and t_{1/2} were then calculated from the experimentally determined kₐ and kd values as KD=kd/kₐ and t_{1/2}=In(2)/kd.

[2] = biological target: T2, recombinant human GREM1 (hGREM1-His; …); assay: BLI Octet, mAb captured, 100 nM GREM1 + 5 uM heparin;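 also: octet Red96 biolayer interferometry at 25 °C, antibodies captured on anti-human IgG Fc biosensors, pH 7.4 HEPES buffer with 0.1 mg/mL BSA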
Experimental: (§1) Binding measurements were conducted using an Octet Red96 label-free biomolecular interaction instrument (ForteBio). All experiments were performed at 25° C. using plate agitation at 1000 rpm. Solutions were made in an aqueous buffer containing 10 mM HEPES, 150 mM NaCl, 3 mM EDTA 0.05% P20, 0.1 mg/mL BSA and adjusted to pH of 7.4 (HBST buffer).
(§2) Anti-Human IgG Fc Capture biosensors (ForteBio) were separately loaded with 50 μg/mL solutions of 24 different anti-GREM1 antibodies for 60 seconds. Following a 30 second wash, duplicate biosensors for each antibody were submerged into wells containing either 100 nM GREM1 solutions or 100 nM GREM1 solutions containing 5 μM of heparin, measuring association for 300 seconds.

[3] = biological target: T1, human GREM1 (hGREM1-His; SEQ ID NO: 595); assay: competition ELISA, biotin-hGREM1-His (100 pM) binding to coated hBMP4
Experimental: Data were analyzed using a sigmoidal dose-response model within Prism™ software. […] The absorbance values of the wells containing the highest concentration for each antibody were used to determine the percent maximum blocking.

[4] = biological target: T1, human GREM1 (hGREM1-His; SEQ ID NO: 595); assay: SPR, Biacore T200, 25 C, mAb captured, hGREM1-His injected;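 also: Heparin-supplemented HBS-EP+ used as running buffer, association and dissociation phases followed, Kd computed as koff divided by kon and half-life derived from koff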
[5] = biological target: T2, recombinant human GREM1 (hGREM1-His; …); assay: BLI Octet, mAb captured, 100 nM GREM1 without vs with 5 uM heparin;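 also: octet Red96 biolayer interferometry at 25 °C, antibodies captured on anti-human IgG Fc biosensors, association of GREM1 measured with versus without heparin in HEPES-buffered saline, pH 7.4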
Experimental: as §1, §2

[6] = biological target: T2, recombinant human GREM1 (hGREM1-His; …); assay: cell-based or functional assay
[7] = biological target: T2, recombinant human GREM1 (hGREM1-His; …); assay: cell-based or functional assay; remark: listed apart in the source
[8] = biological target: T2, recombinant human GREM1 (hGREM1-His; …); assay: BLI Octet, mAb captured, 100 nM GREM1;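 also: octet Red96 biolayer interferometry at 25 °C in pH 7.4 HEPES saline buffer, antibodies held on anti-human IgG Fc capture biosensors, then exposed to GREM1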
Experimental: as §1, §2

Binder | Kd [1] [nM] | koff [1] [s⁻¹] | kon [1] [M⁻¹ s⁻¹] | t1/2 [1] [min] | Binding Signal with 30 sec Association [2] [nm] | Binding Signal with 300 sec Association [2] [nm] | % blocked at maximum Ab tested (20 nM) [3] [%] | IC50 [3] [nM] | Kd [4] [nM] | koff [4] [s⁻¹] | kon [4] [M⁻¹ s⁻¹] | t1/2 [4] [min] | Reduction in Signal from Heparin at 30 sec [5] [nm] | Reduction in Signal from Heparin at 300 sec [5] [nm] | hGREM1-His Inhibition IC50, M; W-20-17 cell differentiation assay (alkaline phosphatase) [6] [nM] | IC50 [M], inhibition of hGREM1-His, W-20-17/BRE-luc luciferase (100 pM hBMP4, 10 nM hGREM1-His) [7] [M] | Binding Signal with 30 sec Association [8] [nm] | Binding Signal with 300 sec Association [8] [nm]
H4H6233P (antibody, human IgG4, V domains shown, H4H prefix = human IgG4 Fc) VH: QVQLVESGGGVVQPGRSLRLSCAASGFTFSSYGMHWVRQAPGKGLEWVAVIWYDGSNYYYAASVKGRFTISRDNSENTLYLQMNRLRAEDTAVYYCAREGTGSTEDYFDYWGQGTLVTVSS VL: EIVLTQSPATLSLSPGERATLSCRASQSVSSFLAWYQQKPGQAPRLLIYDASNRATGIPVRFSGSGSGTDFTLTISSLEPEDFAVYYCQQRSNWPPYTFGQGTKLEIK | 3.26 | 0.000512 | 157000 | 23 | 0.08 | 0.41 | 66 | 0.69 | 1.88 | 0.000172 | 91300 | 67 | 0.11 | 0.06 | 23 | 4.1e-10 | 0.19 | 0.47
H4H2897N (antibody, human IgG4, V domains shown, H4H prefix = human IgG4 Fc) VH: QVQLVESGGGVVQPGRSLRLSCAASGFTFTNYGMHWVRQAPGKGLEWVAAISYDGTNKYYADSVKGRFTISRDDSKNTLCLQMNSLRAEDTAVYYCAKEGTGEGFSFDYWGQGTLVTVSS VL: not shown | 28.8 | 0.00202 | 70300 | 6 | 0.01 | 0.26 | 73 | 0.042 | 148 | 0.00041 | 2770 | 28 | 0.19 | 0.42 | 18 | 4.5e-10 | 0.2 | 0.68
H4H6240P (antibody, human IgG4, V domains shown, H4H prefix = human IgG4 Fc) VH: QVQLVESGGGVVQPGRSLRLSCAASGFTFSSYGMHWVRQAPGKGLEWVAVIWYDGSNKYYADSVKGRFIISRDNSKNMMYLQMNSLRAEDTAVYYCAREDNWNYAFDYWGQGTLVTVSS VL: EIVMTQSPATLSVSPGERATLSCRASQSISSNLAWYQQKPGQAPRLLIYDSSTRATGIPARFSGSGSGTQFTLTISSLQSEDFALYYCQQYSNWPPFTFGPGTKVDIK | 9.75 | 0.00118 | 121000 | 10 | 0.05 | 0.37 | 60 | 0.65 | 4 | 0.000319 | 79700 | 36 | 0.18 | 0.16 | 7.8 | 8.1e-10 | 0.23 | 0.53
H4H6236P (antibody, human IgG4, V domains shown, H4H prefix = human IgG4 Fc) VH: QVQLVQSGAEVKKPGASVKVSCKVSGYTLTELSMHWVRQAPGKGLEWMGGFDPEDGETIYAQKFQGRVTMTEDTSTETAYMELSSLRSEDTAVYYCATDDYDILTDYPYNMDVWGQGTTVTVSS VL: not shown | 2.63 | 0.000245 | 93000 | 47 | 0.05 | 0.43 | 95 | < 0.025 | 2.99 | 0.000125 | 42000 | 92 | 0.28 | 0.02 | 3.9 | 5.4e-10 | 0.33 | 0.45
H4H6232P (antibody, human IgG4, V domains shown, H4H prefix = human IgG4 Fc) VH: QVQLVQSGAEVKKPGASVKVSCKVSGYTLTELSMHWVRQAPGKGLEWMGGFDPEDGETIYAQKFQGRLTMTEDTSTDTAYMELSSLRSEDTAVYYCATDDYDILTSYPYNMDVWGQGTTVTVSS VL: DIQMTQSPSSLSASVGDRVTITCRASQSINNYLNWYQQKPGKAPKLLIYAASSLQSGVPSRFSGSGSGTDFTLTISSLQPEDFGTYYCQQSDSTPFTFGPGTKVDIK | 1.73 | 0.000195 | 113000 | 59 | 0.06 | 0.46 | 93 | < 0.025 | 1.25 | 9.6e-05 | 76800 | 120 | 0.27 | 0.02 | 4.5 | 7.8e-10 | 0.33 | 0.48
H4H6243P (antibody, human IgG4, V domains shown, H4H prefix = human IgG4 Fc) VH: QVQLVQSGAEVKKPGASVKVSCKVSGYTLTELSMHWVRQAPGKGLEWMGGFDPEDGETIYAQKFQDRVTMTEDTSTDTAYMELSSLRSEDTAVYYCVTDDYEILPEYPYNMDVWGQGTTVTVSS VL: DIQMTQSPSSLSASVGDRVTITCRASQSISTYLNWYQQKPGKAPKLLIYAASSLQSGVPSRFSGSGSGTDFTLTIRSLQPEDFATYYCQQSHITPFTFGPGTKVDIK | 68.7 | 0.000484 | 7050 | 24 | 0 | 0.21 | 92 | < 0.025 | 11.3 | 0.000178 | 15800 | 65 | 0.3 | 0.26 | 5.9 | 5.4e-10 | 0.3 | 0.47
H4H6238P (antibody, human IgG4, V domains shown, H4H prefix = human IgG4 Fc) VH: QVQLVESGGGLVKPGGSLRLSCAASGFTFSDYYMSWIRQAPGKGLEWVSYIGTRGSSIYYADSLKGRFTISRDNAKNSLYLQMNSLRAEDTAVYYCARDPTGTSYFDYWGQGTLVTVSS VL: not shown | 16.4 | 0.000931 | 56900 | 12 | 0.02 | 0.33 | 64 | 0.97 | 9.32 | 0.000225 | 24100 | 51 | 0.11 | 0.08 | 22 | 1.1e-09 | 0.13 | 0.41
H4H2926N (antibody, human IgG4, V domains shown, H4H prefix = human IgG4 Fc) VH: EVQLVESGGGLVQTGRSLRLSCAASGFTFDDYAMNWVRQAPGKGLEWVSGISWNSGNIGYADSVKGRFTISRDNAKNSLYLQMNSLRAEDTALYYCVKYIGQQLVQDYFDYWGQGTLVTVSS VL: DIQMTQSPSSLSASVGDRVTITCQASQDITNYLNWYQQRPGKAPKLLIYDAFNLERGVPSRFSGSGYGTYFTFTISSLQPEDIAIYYCQQYDNLPLTFGGGTKVEIE | 11.1 | 0.0014 | 126000 | 8 | 0.07 | 0.42 | 93 | 0.052 | 5.52 | 0.000502 | 91000 | 23 | 0.16 | 0.07 | 13 | 1.2e-09 | 0.23 | 0.49
